The values that follow come from paper PMC6472337, “L amino acid transporter structure and molecular bases for the asymmetry of substrate interaction” (Nature Communications, 2019).

Data set [1] deals with BasC wild-type. Nature of the data set: [3H]L-alanine transport (influx, efflux, exchange) in BasC proteoliposomes. The format is biochemical, Carnobacterium sp AT7. The settings on record: for 10 μM [3H]L-alanine exchange into BasC PLs containing 4 mM of the indicated compound: 4 mM compound inside PLs, n=1-3 and mean. Here is the method:
BasC-GFP protein was reconstituted in E. coli polar lipids (Sigma-Aldrich, Madrid, Spain), as previously described. Lipids were dried under N2 and suspended in reconstitution buffer (20 mM Tris-Base, 150 mM NaCl, pH 7.4). The suspension was sonicated to clarity and purified BasC protein was added to reach the desired protein to lipid ratio of 1:100 (w:w). To destabilize the liposomes, 1.25% ß-D-octylglucoside was added and the mixture was incubated on ice with occasional agitation for 5 min. DDM and ß-D-octylglucoside were removed by dialysis for 40 h at 4 °C against 100 volumes of dialysis buffer. Proteoliposome (PL) suspensions were frozen in liquid N2 and stored at −80 °C until use.
For uptake experiments, the desired intraliposomal amino acid concentration was added to the PL suspension, which was then subjected to three freeze/thaw cycles. The extraliposomal amino acid content was then removed by ultracentrifugation (100,000 × g for 1 h at 4 °C) and PLs were resuspended to one-third of the initial volume with reconstitution buffer. Amino acid uptake assays were initiated after mixing 10 μl of cold PLs with 180 μl of transport buffer (20 mM Tris-Base, 150 mM NaCl, pH 7.4 plus 0.5–1 µCi/180 µl of radiolabeled L-amino acid (Perkin Elmer, Waltham, MA)) supplemented with the unlabeled amino acid to the desired concentration. This mixture was then incubated at room temperature for the indicated periods. […] Filters were then washed twice with 2 ml of stop buffer and dried, and the trapped radioactivity was counted. Transport measured in PLs containing no amino acid was subtracted from each data point to calculate the net exchange. […] BasC protein in PLs was determined by Coomassie blue staining in SDS-PAGE gels compared with known amounts of BasC in DDM micelles, determined by BCA assay (Pierce, Rockford, IL) and loaded in the same gel.

The subject of data set [2] is AdiC. Also on record: method as in PMID 22304019. Conditions: cited from earlier work.
Substrate in data set [3]: C[C@H](N)C(=O)O
The data set can be described thus: cells, lysate or membranes. The settings on record: other: L-alanine uptake, pH 7.4, 37.0 °C.

For data set [4], the target named is T1, bacterial alanine-serine-cysteine exchanger (BasC), wild-type, purified for crystallography (Carnobacterium sp. AT7).
T1 construct: BasC, bacterial alanine-serine-cysteine exchanger, a prokaryotic L-type amino acid transporter (LAT); In the transport assays (functional rows) BasC stood as uncleaved BasC-GFP reconstituted in E. coli polar lipid proteoliposomes; also called WT; source: E. coli BL21 Star (DE3), purified in DM (Ni2+-NTA, on-column HRV-3C cleavage); not shown: GFP, C-terminal, cleaved
T1 chain: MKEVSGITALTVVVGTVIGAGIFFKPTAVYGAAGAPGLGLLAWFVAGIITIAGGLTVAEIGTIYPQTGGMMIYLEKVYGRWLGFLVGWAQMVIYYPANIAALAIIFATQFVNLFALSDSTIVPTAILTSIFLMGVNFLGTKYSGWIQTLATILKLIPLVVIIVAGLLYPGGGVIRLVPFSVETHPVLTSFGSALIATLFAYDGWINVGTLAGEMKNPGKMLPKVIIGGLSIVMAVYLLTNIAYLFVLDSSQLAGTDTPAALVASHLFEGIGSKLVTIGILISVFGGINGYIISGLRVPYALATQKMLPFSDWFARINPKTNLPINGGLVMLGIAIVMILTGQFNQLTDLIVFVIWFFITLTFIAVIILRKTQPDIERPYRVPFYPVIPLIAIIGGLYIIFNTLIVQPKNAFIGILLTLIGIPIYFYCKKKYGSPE
Nature of the data set: SPR; Biacore T-100; nanobody captured (around 200 RU) on a CM5 chip coated with anti-His antibody; BasC flowed at 500–2.5 nM; running buffer phosphate buffered saline, 0.17% DM. The settings on record: both partners purified. Background: SPR reads the build-up and loss of mass on a sensor chip optically.

In data set [5] the target is T1, bacterial alanine-serine-cysteine …. The data set can be described thus: crystal structure; BasC incubated with Nb74 at 1:1.2, complex purified by SEC in 0.17% DM; sitting-drop vapor diffusion at 4 °C, 27–29% PEG 400, 0.1 M ammonium acetate pH 8; apo (2.9 Å) and with 100 mM 2-AIB (3.4 Å). The settings on record: both partners purified. For orientation: Size exclusion chromatography separates by hydrodynamic size, large species first.

Data set [6] has as its target BasC. Nature of the data set: Surface plasmon resonance of Nb74-BasC interaction. Type of data set: binding, Carnobacterium sp AT7. Conditions: read-out: KD (affinity of Nb74 for BasC). As for the experimental part: Surface plasmon resonance (Biacore T-100, GE Healthcare, Chicago, IL) was used to screen 29 Nbs (one from each family) for binding with BasC, purified as for crystallography. […] BasC was assayed at 500–2.5 nM in running buffer. […] The BasC-Nb74 complex rendered the best results initially and consequently crystals were optimized.

Where [7] appears, read: 5 µM Nb74 in medium, exchange with 4 mM L-alanine, NT = 100, n=1-6 and mean.

Residue numbers refer to the chain shown, from its start. Names may count otherwise.

`CC(C)(N)C(=O)O` [2-AIB, 2-aminoisobutyric acid]: in data set [1] (2-AIB as intraliposomal substrate, read-out: intracellular Km), the Km (usually the substrate concentration at which the rate is half of its maximum) is 34.5 ± 10 mM. Moreover, in data set [1] (higher than L-alanine Km), the “intracellular Km relative to L-alanine Km” value is recorded as ~ 10 fold.
In the case of `CC(=O)O` [Acetate], the “10 μM [3H]L-alanine exchange into BasC PLs containing 4 mM of the indicated compound” value in data set [1] is “not significant”.
As to `CCN` [Ethylamine, ethylamine], the “10 μM [3H]L-alanine exchange into BasC PLs containing 4 mM of the indicated compound” value in data set [1] (listed as ethylamine) is reported as “not significant”.
As for `NCCCC(=O)O` [GABA, γ-aminobutyrate], the “10 μM [3H]L-alanine exchange into BasC PLs containing 4 mM of the indicated compound” value in data set [1] is reported as “not a substrate”.
On to `NCCCCN=C(N)N` [agmatine], for which the “intracellular apparent Km value compared to the extracellular one” value in data set [2] was “two-fold higher”.
Regarding `N=C(N)NCCC[C@H](N)C(=O)O` [arginine], the “intracellular apparent Km value compared to the extracellular one” value in data set [2] is reported as “two-fold higher”.

B1: human Asc-1 (hAsc-1) wild-type (Homo sapiens) (protein)
chain: MAGHTQQPSGRGNPRPAPSPSPVPGTVPGASERVALKKEIGLLSACTIIIGNIIGSGIFISPKGVLEHSGSVGLALFVWVLGGGVTALGSLCYAELGVAIPKSGGDYAYVTEIFGGLAGFLLLWSAVLIMYPTSLAVISMTFSNYVLQPVFPNCIPPTTASRVLSMACLMLLTWVNSSSVRWATRIQDMFTGGKLLALSLIIGVGLLQIFQGHFEELRPSNAFAFWMTPSVGHLALAFLQGSFAFSGWNFLNYVTEEMVDARKNLPRAIFISIPLVTFVYTFTNIAYFTAMSPQELLSSNAVAVTFGEKLLGYFSWVMPVSVALSTFGGINGYLFTYSRLCFSGAREGHLPSLLAMIHVRHCTPIPALLVCCGATAVIMLVGDTYTLINYVSFINYLCYGVTILGLLLLRWRRPALHRPIKVNLLIPVAYLVFWAFLLVFSFISEPMVCGVGVIIILTGVPIFFLGVFWRSKPKCVHRLTESMTHWGQELCFVVYPQDAPEEEENGPCPPSLLPATDKPSKPQ
On to B1, for which, in data set [3] (wild-type hAsc-1, HeLa cells), the Michaelis constant (Km) was 0.0675 ± 0.0042 mM and the Vmax is reported as 1703 ± 425 pmols µg protein^−1 min^−1.

B2: hAsc-1 K194A mutant (Homo sapiens; K194A) (protein)
chain: B1 chain with K194A
As to B2, in data set [3] (K194A hAsc-1, HeLa cells), the Michaelis-Menten constant (Km) was 0.825 ± 0.053 mM and the Vmax is 152 ± 16 pmols µg protein^−1 min^−1.

B3: anti-BasC nanobody 74 (Nb74) (VHH)
VHH: QVQLVESGGGVVQAGGSLRLSCAASGRTFSSRAMGWFRQAPGEGREFVATISWSGSYTEYADSVKGRVTISRDNAKNTVYLQMNSLKPGDTAVYHCAAKNGGAASNYPNDYVYWGQGTQVTVSS
notes: nanobody from a llama immunised with BasC proteoliposomes, selected by phage display (vector pMESy4); Captured by its His tag on an anti-His antibody in the SPR experiment
As to B3, in data set [4], the dissociation constant Kd (commonly the equilibrium constant for the complex coming apart) came out at 3.9 ± 1.4 nM. In data set [1] (setting [7]), the “Efflux of 10 µM [3H]L-alanine, normalized to non-treated PLs” value is recorded as 9.14 and the “Influx of 10 µM [3H]L-alanine, normalized to non-treated PLs” value was 105.77. The IC50 – broadly, the concentration at which inhibition is half-maximal – in data set [1] (read-out: IC50 of 10 µM [3H]L-alanine efflux, efflux in exchange with 4 mM L-alanine, Nb74 in PL medium) was roughly 300 nM. The stoichiometry N – broadly, the number of molecules, sites or subunits per partner or assembly – in data set [5] was 1. Moreover, the Kd in data set [6] stood at 3.87 nM.
